In the nanobody polyreactivity screen of Harvey et al. (2022):

Test: yeast display, Sf9 membrane polyspecificity reagent, FACS + sequencing; frameworks hold sequencing errors
How it was run: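 Polyreactivity labels are assigned by the sorting gate from which each nanobody was recovered. The gates were low and high (top ~1%), set on anti-HA fluorescence for expression and streptavidin fluorescence for reagent binding. Before sorting, galactose-induced (36–48 hours) yeast display cells were stained for 1 hour at 4 °C with 10% biotinylated, detergent-solubilized Sf9 membrane reagent.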

Row | Sequence | polyreactivity (PSR sort gate)
1 | QVQLVESGGGLVQAGGSLRLSCAASGSTFHPNGMGWYRQAPGQEREFVAAIRRSGGSTYYADSVKGRFTISRDNAKNTVYLQMNSLKPEDTAVYYCAAKHYYYSPYVRYDPPPGYYWGQGTQVTVSS | high polyreactivity
2 | QVQLVESGGGLVQAGGSLRLSCAASGSTFHRNSMGWYRQAPGKERELVASISIGGSTNYADSVKGRFTISRDNAKNTVYLQMNSLKPEDTAVYYCATEPNPRRPRVDYDYWGQGTQVTVSS | low polyreactivity
3 | QVQLVESGGGLVQAGGSLRLSCAASGSTFHRYTMGWYRQAPGKEWELVAAISWSGGSTYYADSVKGRFTISRDNAKNTVYLQMNSLKPEDTAVYYCAAVKPAEALDYWGQGTQVTVSS | high polyreactivity
4 | QVQLVESGGGLVQAGGSLRLSCAASGSTFHSYAIGWYRQAPGKEREFVAAITIRGGSTYYADSVKGRITISRDNAKNTVYLQMNSLKPEDNAVYYCAALVWGSYARWRYYCGQGTQVTVSS | high polyreactivity
5 | QVQLVESGGGLVQAGGSLRLSCAASGSTFHVNAMGWYRQAPGKEREFVAAISWRTGSTYYADSVKGRFTISRDNAKNTVYLQRHSLKPEDTAVYYCAAKRSYSNYDYWGQGTQVTVSS | high polyreactivity
6 | QVQLVESGGGLVQAGGSLRLSCAASGSTFHYYAMGWYRQAPGKERELVAAITRGGNTYYADSVKGRFTISRGNAKNTVYLQMNSLKPEDTAVYYCAKDNLFEAYRYDYWGQGTQVTVSS | low polyreactivity
7 | QVQLVESGGGLVQAGGSLRLSCAASGSTFICKAMGWYRQAPGKERELVAAIDYRGGNTYYADSVKGRFTISRDYAKNSVYLHMNSLKPEHTAVYYCAARVVGYEYFYDYYYWGQGTQVTLSS | low polyreactivity
8 | QVQLVESGGGLVQAGGSLRLSCAASGSTFIFNAMGWYRQAPGKERELVAGISSGSTYYADSVKGRFTISRDNAKNTVYLQMNSLIPEDTAVYSCATKLRRWRFYAAYDYWGQGTQVTVSS | high polyreactivity
9 | QVQLVESGGGLVQAGGSLRLSCAASGSTFIFNAMGWYRQAPGKEWELVAGISSGSTYYADSVKGRFTISRDNAKNTVYLQMNSLKPEDTAVYYCATKLRRWRFYAAYDYWGQGTQVTVSS | high polyreactivity
10 | QVQLVESGGGLVQAGGSLRLSCAASGSTFIFYSMGCYRQAPGKERELVASITSSSGPTYYADSVKGRFTISRDNAKNTVYLQMNSLKPEDTAVYYCAKRPIRYYHLLRGNYWGQGTQVTVSS | low polyreactivity
11 | QVQLVESGGGLVQAGGSLRLSCAASGSTFIGNAMGWYRQAPGKERELVAAITSSGGSTYYADSVKGRFTISRDNAKNTVYLQMNSLKPEDTAVYYCAAKSRRTRRSYYWGQGTQVTVSS | high polyreactivity
12 | QVQLVESGGGLVQAGGSLRLSCAASGSTFIGYAMGWYRKAPGKERELVAAITGGGRTNYADSVKGRFTISRDNAKNTVYLQMNSLKPEDTAVYYCAARGVTRGYAKPYYSRGDYWGQGTQVTVSS | low polyreactivity
13 | QVQLVESGGGLVQAGGSLRLSCAASGSTFIGYAMGWYRQAPGKERELVASISWGGGSTYYADSVKGRFTISRDNAKNTVYLQMNSLKPEDTAVYYCATDGRTYIDFYWGQGTQVTVSS | low polyreactivity
14 | QVQLVESGGGLVQAGGSLRLSCAASGSTFIGYAMGWYRQAPGKEWELVAAISWSGGRTYYADSVKGRFTISRDNEKNTVYLQMNSLKPEDTAVYYCAASYYGCSARYDTLGIYEYWGLGTQVTVSS | high polyreactivity
15 | QVQLVESGGGLVQAGGSLRLSCAASGSTFIHNAMGWYRQAPGKERELVAAITSGGSTYYADSVKGRFTISRDNAKNTVYLQMTSLKPEDTAVYYCNAGRGTRFVYIDGMDYWGQGTQVTVSS | high polyreactivity
16 | QVQLVESGGGLVQAGGSLRLSCAASGSTFILNAMGWYRQAPGKERELVATISSSDTSTYYADSVKGRFTISRDNANNTVYLQMNSLKPEDTAVYYCNADYYTTSYLQRVYHYGVEYDYWGQGTQVTVSS | low polyreactivity

Row | Sequence | polyreactivity (PSR sort gate)
17 | QVQLVESGGGLVQAGGSLRLSCAASGSTFILYAMGWYRQAPGKERELVAAISSDGSTYYADSVKGRFTISRDNAKNTVYLQMNSLKPEDTAVYYCAADSDTFYYTGYDYDYWGQGTQVTVSS | low polyreactivity
18 | QVQLVESGGGLVQAGGSLRLSCAASGSTFIPYAMGWYRQAPGKERELVAAIRGGDGSTYYADSVKGRFTISRDNAKNTVYLQMNSLKPEDTAVYYCAADTVITAYFYRFWRYNYWGQGTQVTVSS | low polyreactivity
19 | QVQLVESGGGLVQAGGSLRLSCAASGSTFIRYAMGWYRQAPGKERELVAAISSGGGNTYYADSVKGRFTISRDNAKNTVYLQMDSLKPEDTAVYYCAARYLAYGPTGYLYGYNYWGQGTQVTVSS | high polyreactivity
20 | QVQLVESGGGLVQAGGSLRLSCAASGSTFISNDMGWYRQAPGKEREFVAAITASGGSTYYADSVKGRFTISRDYAKNTVYLQMNSLKPEDTAVYYCARVYTFLDVYFRYGYWGQGTQVTVSS | low polyreactivity
21 | QVQLVESGGGLVQAGGSLRLSCAASGSTFISYAMGWYRQAPGKERELVAAISYRGGSTRYADSVKGRFTISRDNAKNTVYLQMNSLKPEDTAVYYCAAYTRKSHIREYDYWGQGTQVTVSS | high polyreactivity
22 | QVQLVESGGGLVQAGGSLRLSCAASGSTFITYVMGWYRQAPGKERELVAAISRSGGTTYYADSVKGRFTISRDNAKNTVYLQMNCLKPEDTAVYYCAARIGGQVQKTARGSWGQGTQVTVSS | high polyreactivity
23 | QVQLVESGGGLVQAGGSLRLSCAASGSTFIVNALGGYRQAPGHEREFVAAIRWSGGSTYYADSVKGRFTISRDNAKNTVYFQMNSLKPDDTAVYYCNARSYQSARFRGGYWGQGTQVTVSS | high polyreactivity
24 | QVQLVESGGGLVQAGGSLRLSCAASGSTFIVNAMGWYRQAPGKERELVAAITGGGGSTYYADSVKGRFTISRDNAKNTVYLQMNSLKPEDTAVDYCAARIQYAFGADYYWGQGTQVTVSS | low polyreactivity
25 | QVQLVESGGGLVQAGGSLRLSCAASGSTFIVYAMGWYRQAPGKERELVAAIRGRGGSTYYADSVKGRFTISRDNAKNTVYLQMNSLKPEDTAVYYCAARGISPQEMYYWGQGTQVTVSS | high polyreactivity
26 | QVQLVESGGGLVQAGGSLRLSCAASGSTFIWYDMGWYRQAPGKERELVATIDGNDGSTYYADSVKGRFTISRDNAKNTVYLQMNSLKPEDTAVYYCAKRSTGRLQSYNYWGQGTQVTVSS | low polyreactivity
27 | QVQLVESGGGLVQAGGSLRLSCAASGSTFIYNTMGSYRQAPGKERELVAAISGSGGRTYYADSVKGRFTISRDNAKNTVYLQMNSLKPEDTAVYYCAARYYTKLYWGQGTQVTVSS | high polyreactivity
28 | QVQLVESGGGLVQAGGSLRLSCAASGSTFIYYAMGWYRQAPGKERELVAGISIRGGSTYADSVKGRFTISRDNAKNTVYLQKNSLKPEDTAVYFCNAYKRIKANGYAIRYYYWGQGTQVTVSS | high polyreactivity
29 | QVQLVESGGGLVQAGGSLRLSCAASGSTFKAYAMGWYRQAPGKERELVAAITKSGGRTYYADSVKGRFTLSRDNAKNTVYLQMNSLKPEDTAVYYCNAAAYVWKSKQRLYVITYDYWGQGTQVTVSS | high polyreactivity
30 | QVQLVESGGGLVQAGGSLRLSCAASGSTFKAYAMGWYRQAPGKERELVAAITYNGGSTYYADSVKGRFTISRDNEKNTVYLQMNSLKPEDTAVYYCAKRETGRRDPRRSTQYRYEYWGQGTQVTVSS | low polyreactivity
31 | QVQLVESGGGLVQAGGSLRLSCAASGSTFKAYVMGWYRQEPAKERELVAVISRSGGTTYYADSVKGRFTISRDNAKNTVYLQMNSLKPEDTAVYYCAAQWRYQYPESLESYYWGQGTQGTVSS | high polyreactivity
